These are literature values, as cited in paper PMC3078979.

This series concerns the target Gamide (amidated gastrin) (Homo sapiens) (UniProt P01350). The series is described as follows: ultracentrifugation.

Turning to apo-transferrin (from UniProt P02787), the Kd was 6.4 µM.

One may read the Kd as the free concentration of one partner at which half of the binding sites on the other are occupied at equilibrium, for simple one-to-one binding.
